Assay results: US20080242590

Biological target: amyloid β peptide 1-40 (human)

B1: Recombinant Human Neprilysin (R&D Systems) (protein)
chain: YDDGICKSSDCIKSAARLIQNMDATTEPCTDFFKYACGGWLKRNVIPETSSRYGNFDILRDELEVVLKDVLQEPKTEDIVAVQKAKALYRSCINESAIDSRGGEPLLKLLPDIYGWPVATENWEQKYGASWTAEKAIAQLNSKYGKKVLINLFVGTDDKNSVNHVIHIDQPRLGLPSRDYYECTGIYKEACTAYVDFMISVARLIRQEERLPIDENQLALEMNKVMELEKEIANATAKPEDRNDPMLLYNKMTLAQIQNNFSLEINGKPFSWLNFTNEIMSTVNISITNEEDVVVYAPEYLTKLKPILTKYSARDLQNLMSWRFIMDLVSSLSRTYKESRNAFRKALYGTTSETATWRRCANYVNGNMENAVGRLYVEAAFAGESKHVVEDLIAQIREVFIQTLDDLTWMDAETKKRAEEKALAIKERIGYPDDIVSNDNKLNNEYLELNYKEDEYFENIIQNLKFSQSKQLKKLREKVDKDEWISGAAVVNAFYSSGRNQIVFPAGILQPPFFSAQQSNSLNYGGIGMVIGHEITHGFDDNGRNFNKDGDLVDWWTQQSASNFKEQSQCMVYQYGNFSWDLAGGQHLNGINTLGENIADNGGLGQAYRAYQNYIKKNGEEKLLPGLDLNHKQLFFLNFAQVWCGTYRPEYAVNSIKTDVHSPGNFRIIGTLQNSAEFSEAFHCRKNSYMNPEKKCRVW
Amyloid β 1-40 peptide degradation (remaining peptide by Gyrolab immunoassay), enzyme 2.4 µg/ml, 300 nM peptide, 2.5 h at 37 °C in buffer: degraded 64% of Amyloid β 1-40 peptide (300 nM) | degradation of Aβ40 in human plasma compared to vehicle (ELISA), 5 µg/ml, 4 h at 37 °C: degraded Aβ40 with 33% and 70%, respectively
